# Source: IntAct's records for PubMed 20802461
# B1: Mitogen-activated protein kinase ERK-A (Drosophila melanogaster (Fruit fly)), P40417 (parent)
# chain: MEEFNSSGSVVNGTGSTEVPQSNAEVIRGQIFEVGPRYIKLAYIGEGAYGMVVSADDTLTNQRVAIKKISPFEHQTYCQRTLREITILTRFKHENIIDIRDILRVDSIDQMRDVYIVQCLMETDLYKLLKTQRLSNDHICYFLYQILRGLKYIHSANVLHRDLKPSNLLLNKTCDLKICDFGLARIADPEHDHTGFLTEYVATRWYRAPEIMLNSKGYTKSIDIWSVGCILAEMLSNRPIFPGKHYLDQLNHILGVLGSPSRDDLECIINEKARNYLESLPFKPNVPWAKLFPNADALALDLLGKMLTFNPHKRIPVEEALAHPYLEQYYDPGDEPVAEVPFRINMENDDISRDALKSLIFEETLKFKERQPDNAP
# How the values were obtained:
# Conditions in all cases: with arrb2_human ARRB2, P32121
# [1] = variants of: B1
# [2] = variants of: B1; remark: listed apart in the source
# [3] = variants of: B1; remark: listed apart in the source
effect of a mutation on the interaction [1],effect of a mutation on the interaction [2],effect of a mutation on the interaction [3],Variant
disrupting interaction,disrupting interaction strength,,T198E
disrupting interaction,,decreasing interaction,Y200E
